Assays:
[1] = target: tumor-associated glycoprotein TAG-72 (human); assay: ELISA on TAG-72-coated plates (FIGS. 7 and 8)
[2] = target: tumor-associated glycoprotein TAG-72 (human); assay: TAG-72-coated plate assay with 125I goat anti-human IgG probe, Scatchard analysis; mean of 8 analyses

Substance: humanized CC49 antibody CC49 HuVH/HuVK (ATCC CRL-12209)
- fold less binding than the chimeric MuVH/MuVK antibody [1]: 2 fold
- Ka [2]: 4.27e+09 M⁻¹
